From the Human Domainome abundance scans (Beltran et al. 2025)
± gives the uncertainty stated by the source.

B1: Ankyrin-1, residues 1405 to 1484; numbered along this chain, P16157 (parent)
chain: MKMAVISEHLGLSWAELARELQFSVEDINRIRVENPNSLLEQSVALLNLWVIREGQNANMENLYTALQSIDRGEIVNMLE

Variants of: B1
Assay: abundance fitness (aPCA) (normalised: wild type 0, dead -1); higher = more abundant; growth selection in yeast, the domain comes from the species named
Conditions: Homo sapiens

Abundance fitness: each site, then its substitutions
L40: A -0.11 ± 0.052, Y -0.189 ± 0.11, N -0.372 ± 0.11, E -0.032 ± 0.099, C -0.373 ± 0.097, P -0.428 ± 0.075, S -0.16 ± 0.059, K 0.182 ± 0.06, T -0.081 ± 0.085, V 0.011 ± 0.052, Q -0.029 ± 0.17, H -0.136 ± 0.11, M -0.067 ± 0.081, F 0.015 ± 0.067, G -0.286 ± 0.06, I 0.061 ± 0.14, R 0.089 ± 0.059
P36: C -0.069 ± 0.098, A 0.016 ± 0.071, M -0.064 ± 0.34, K -0.267 ± 0.16, T -0.525 ± 0.15, H -0.31 ± 0.12, L -0.774 ± 0.12, I -0.459 ± 0.21, Q 0.123 ± 0.11, Y -0.565 ± 0.25, W -0.219 ± 0.095, D -0.165 ± 0.14, G -0.298 ± 0.071, E -0.066 ± 0.12, N -0.104 ± 0.25, V -0.666 ± 0.12
N37: G -0.166 ± 0.093, K 0.023 ± 0.13, D -0.023 ± 0.13, P -1.09 ± 0.48, V -0.277 ± 0.097, R -0.186 ± 0.092, E -0.005 ± 0.082, A -0.025 ± 0.093, F -0.152 ± 0.23, H -0.366 ± 0.29, T -0.111 ± 0.18, Q -0.444 ± 0.35, C -0.314 ± 0.2, S -0.064 ± 0.09, L -0.199 ± 0.074, Y -0.322 ± 0.2, W -0.36 ± 0.18
N35: Y -0.42 ± 0.3, V -0.171 ± 0.12, E 0.051 ± 0.39, F -0.219 ± 0.2, M -0.317 ± 0.17, I -0.457 ± 0.11, K -0.064 ± 0.16, R -0.068 ± 0.11, C -0.355 ± 0.22, S -0.017 ± 0.12, A -0.304 ± 0.095, G -0.858 ± 0.21, Q -0.247 ± 0.16, W -0.222 ± 0.096, L -0.491 ± 0.12, T -0.3 ± 0.12, P -0.866 ± 0.23
V33: G -0.041 ± 0.04, I -0.018 ± 0.13, N -0.103 ± 0.28, R 0.021 ± 0.038, F 0.021 ± 0.12, L -0.001 ± 0.061, C 0.174 ± 0.12, A 0.096 ± 0.057, Q 0.033 ± 0.09, T 0.138 ± 0.082, H -0.043 ± 0.049, W -0.073 ± 0.07, S -0.03 ± 0.061, E -0.014 ± 0.068, P -0.764 ± 0.24, D -0.031 ± 0.14, M -0.034 ± 0.076, K -0.215 ± 0.14
E34: N -0.134 ± 0.35, W -0.559 ± 0.28, Y -0.565 ± 0.38, F -0.185 ± 0.16, G -0.166 ± 0.074, S -0.144 ± 0.12, M -0.265 ± 0.34, P -0.992 ± 0.49, L -0.241 ± 0.097, K -0.522 ± 0.41, D -0.186 ± 0.33, R -0.204 ± 0.12, C -0.257 ± 0.19, H -0.453 ± 0.18, V -0.308 ± 0.099
L39: G -0.423 ± 0.15, H -0.42 ± 0.26, R -0.554 ± 0.074, A -0.103 ± 0.069, F -0.068 ± 0.14, C 0.066 ± 0.14, T 0.116 ± 0.16, I -0.41 ± 0.43, Y 0.004 ± 0.13, W -0.262 ± 0.09, Q 0.019 ± 0.17, P 0.058 ± 0.12, D -0.063 ± 0.18, E 0.105 ± 0.09, M -0.075 ± 0.15
I31: Q -0.712 ± 0.11, V -0.192 ± 0.057, R -0.647 ± 0.083, P -0.639 ± 0.29, T -0.774 ± 0.3, S -0.938 ± 0.18, Y -0.448 ± 0.41
R32: M -0.35 ± 0.13, E 0.031 ± 0.05, P -0.831 ± 0.23, C -0.13 ± 0.19, F 0.069 ± 0.098, V -0.041 ± 0.059, I -0.124 ± 0.071, W -0.31 ± 0.45, H -0.294 ± 0.12, G -0.212 ± 0.06, L -0.095 ± 0.056, N -0.369 ± 0.17, K -0.3 ± 0.12, T -0.141 ± 0.083, Q -0.132 ± 0.066, Y -0.43 ± 0.15
E41: A -0.113 ± 0.057, F -0.28 ± 0.11, C -0.173 ± 0.075, I -0.579 ± 0.48, H -0.161 ± 0.14, G -0.086 ± 0.035, M -0.275 ± 0.12, N 0.162 ± 0.13, P -0.574 ± 0.19, R 0.054 ± 0.053, Q -0.1 ± 0.12, S -0.005 ± 0.048, D 0.007 ± 0.12, K 0.117 ± 0.094
S38: K -0.386 ± 0.25, R -0.478 ± 0.08, F -0.345 ± 0.17, C -0.099 ± 0.087, T -0.291 ± 0.13, N -0.174 ± 0.11, V -0.351 ± 0.13, P -0.822 ± 0.23, A -0.258 ± 0.081, W -0.754 ± 0.21, L -0.781 ± 0.16, M -0.353 ± 0.12, E -0.514 ± 0.23, D -0.048 ± 0.2, Y -0.749 ± 0.25
